According to paper PMC4963197 (2016):
Square brackets hold non-standard residues; d marks the D form. Ends that are not written are not given here. pS = N[C@@H](COP(=O)(O)O)C(=O)O

What was measured:
G-actin [1] = molecular target: T1, G-actin (UniProt P68135 1-377); assay: FP; LatB-actin; phospho-S98
G-actin [2] = molecular target: T1, G-actin; assay: FP; LatB-actin

| Binder | Kd (G-actin [1]) [µM] | Kd (G-actin [2]) [µM] |
| --- | --- | --- |
| {FAM}-PNLPPLSERKNVLQLKLQQRRTREELVSQGIMPPLKSPAAFHE [FAM-MRTF-A(62–104)] | – | 1.05 |
| {FAM}-LSERKNVLQLKLQQRRTREELVSQGIMPPLKS [FAM-MRTF-A(67–98)] | – | 1.12 |

The next lines start with the values.

| Kd (G-actin [1]) [µM] | Kd (G-actin [2]) [µM] | Binder |
| --- | --- | --- |
| 0.85 | – | {FAM}-PNLPPLSERKNVLQLKLQQRRTREELVSQGIMPPLK[pS]PAAFHE [FAM-MRTF-A(62–104) phosphorylated at S98] |
| 0.63 | – | {FAM}-LSERKNVLQLKLQQRRTREELVSQGIMPPLK[pS] [FAM-MRTF-A(67–98) phosphorylated at S98] |
| – | 0.93 | {FAM}-PNLPPLSERKNVLQLKLQQRRTREELVSQGIMPPLKDPAAFHE [FAM-MRTF-A(62–104) S98D] |
